Data taken from the DeepSol protein solubility set.

Test: soluble on expression in E. coli; label from the status in PepcDB or PDB records

With “MSLNYTELEENIKKNNIENVYIMCGFNEKLMKESINKILKKSISQDFESLNYSVFDGNEVEFEDILNACETVPFMSEKRMVVVYRAGFLNDNSSGSNKNSDKLIKDIEKYVPNVPKHCILVMYYVFDNTREKPSYRVKKFDKKVCVVEFSKLRGMQFQKKVKDVFAEKGKQIGKTELNYFCSRVENNMDIVYNEIEKLCCYTLEKEITKESIDNLLQPNETDDIFNLVDYISQSKPEMAITVLNEIMYKGVKANSILYMVERQFKLMLSIKIGIENKQSKEALVKELKLNPYVCDKMINECKRFTMKKILKSLDICLRTEKELKSVSGDPKFKMEVLIINLAIEGHHHHHH” as the sequence, how does the “soluble on expression in E. coli” value read?
The value was “soluble”.

With “MSLGKTLFDKLWNRHVIYGKEGEPQLLYVDLHLIHEVTSPQAFEGLRMENRPLRRPDKTFATMDHNVPTEDIFNIQDLVAKKQIEALQTNCEEFGVTLADMGSDRQGIVHMVGPETGLTQPGKVIVCGDSHTATHGAFGAIGFGIGSSEVEHVFATQTIWQQKPKSMGIEINGNLPKGVYAKDIILHLIATYGVAFGTGYAVEYYGETIRNMSMEERMTICNMAIEGGAKMGMMAPDETTFEYVRGREYAPADMDKAISDWKTLQTDPDAEYDLHIKMDASILEPYVTWGTNPEMGVPFSKAFPEIKDMNYERAYEYMGLKPGQTAEEIELGYVFIGSCTNARLSDLEEAARIVKGNKVKNNIRALVVPGSRQVRNAAESIGLDKIFIEAGFEWREPGCSMCLGMNPDQVPDGVHCASTSNRNFEGRQGKGARTHLVSPAMAAAAAINGHFIDIRKEAVISGGNEGHHHHHH” as the sequence, how does the “soluble on expression in E. coli” value read?
The value was “not soluble”.

For “MSLKSNVYYEELAKQNAIKTEFLPPVRGQITDRNGTLLAINDLGFSISIKPYLSIKKSNKGILDKELSELTNLFPDLNASKLAEIYKRNDSYYNQDFIKVVDFIPYDEIISHYSELNLNKTIKIDPVVKRKYPFGKLASHIIGYVGKANLQDVQENEIAKLSNYTGKSGIERYYNDILQGEKGTRVYKVNALNQEVEQLSYTPAMSNDIELTIDIELQSYLTSLFEGNAGAAIIMNVNDGSILAAGSFPEYDLNPFVTGISFKDWDELSNSLDHPFTNKLINGYYPPGSVVKMGVGLSFLNSKNISPSTHYVCNGSIELGGRFFRCWNRSGHGPVDLKHAIKYSCDVYFYNGSLQVGIDQISETLSRIGFGVKTGVDLPSEFVGTLPSKEWKMQRYRQSWFQGDTLNTAIGQGNFLATPMQIARYTAQIAKSGEVIPHFLKSIENNNTTIENQMDENKKEIFTLFEKSQLPYIRDAMYAVANEQGGTSYRYLHNLDVKVAAKTGTAQVVGFSQTDKNRVDEKQFEYYTRSHAWLTSYAPYSKPKYVVTVLLEHGGRNITSGATVAKIYQKMIELGYFKEGHHHHHH”, which “soluble on expression in E. coli” value is on record?
The value was “soluble”.

Which “soluble on expression in E. coli” value does the source give for “GMNQNKITAGGLEFLVRFAAPTDRLKINDLMIDTARWLKESGSTQWSDILHGFDVHNIEQRIELGEVALFETEAGALAGAMIIRKTPSDWDTDLWEDLAIDKAYYLHRIMVSRAFSGISLSKQMIYFAEKLGIEMSVPFIRLDCIESNETLNQMYVRYGFQFSGKKNGFYLYQKELSQK” here?
The value was “soluble”.

Which “soluble on expression in E. coli” value does the source give for “GAAASIQTTVNTLSERISSKLEQEANASAQTKCDIEIGNFYIRQNHGCNLTVKNMCSADADAQLDAVLSAATETYSGLTPEQKAYVPAMFTAALNIQTSVNTVVRDFENYVKQTCNSSAVVDNKLKIQNVIIDECYGAPGSPTNLEFINTGSSKGNCAIKALMQLTTKATTQIAPKQVAGTGVQ” here?
The value was “soluble”.

With “MTKLEQIQQWTAQHHASMTYLSNPKTIEYLTGFGSDPIERVLALVVFPDQDPFIFAPALEVEVIKETGWQFPVIGYLDHENPWAMIADQVKQRHVNPEHVAIEKGQLQVARMEALAAQFSAPSFDLDITSFIEHMR” as the sequence, how does the “soluble on expression in E. coli” value read?
Its value is “soluble”.

For “PKALIVYGSTTGNTEYTAETIARELADAGYEVDSRDAASVEAGGLFEGFDLVLLGCSTWNDDSIELQDDFIPLFDSLEETGAQGRKVACFGCGDSSYEYFCGAVDAIEEKLKNLGAEIVQDGLRIDGDPRAARDDIVGWAHDVRGAI”, which “soluble on expression in E. coli” value is on record?
The value was “soluble”.

With “MQTSLRAPTLEKVSSRPRGSRRRSRKTFTAKLTSPTFRRWSSTEKWTVASREIGSARKRFCSTRTPGAAIHSSNRSRSALRYDHIDHRALARKSPHLMPPTFIKEEIMDDELDEVKEEVVSVGEAALPTPKVELNMDHPEKDLIISISVYLGYTRTLQYHEIRLGRLMKITDRLELTGDHTLRDLKNAFSCPIDFSFSDDFSEKKPSFKDMAKNKWPSTMFFIHDTDESHVNVEFPRRLVERNFRRIACDTCKEASAHWMIVDHDNLLPNSPGYLCSSCYKEFCFDVNGNKVCQFKAVPYCDRKDIGDGRQFFTELDL” as the sequence, how does the “soluble on expression in E. coli” value read?
Its value is “not soluble”.

With “MSLFQSDLKLIVFQHGFFGERFVANLMNYPNSCPSYGACGIDGCTQCKEGLYNFSKNIIAVFSMPDPTTMPDFIENAEDFLPKVIPEADIAVAINLHPDVLAVMPEKLKGKVKALIVPVEEPRWCSPGLAKQIREKCDELGLEFAAPKPFCNLRPSEEHPTINRMIEEMRIGYPEFEIELLEDGKAYVRISRSQPCGCAYYIGVKLRGFDFSEVKEGKMRELWNVVAEAHHSYPCTASMERDNEYNETLLHVGGYIARHAVNRALGYEGDEDIPEHIKHIVLEGGSHHHHHH” as the sequence, how does the “soluble on expression in E. coli” value read?
The value was “soluble”.

With “MGSDKIHHHHHHMRRLPPLNALQIFATVARHRSFTRAADALCVTQGAISRQIQSLEAHYGFALFMRHARGLTLTVEGEQLLPVVVESFARIEDISLKLTRQRTDLALKVPTCVMRWVLPRIMRFQREHPDLHVQMTTTWRHDVDFQSEPFDAAIVYGMSPGPDVAAVPLFDERLTPVCAPDLLEGRPLARVEDLACHTLLHPTRDHRDWRRWLDYAGAAGVDPDRGPSFDSLDLATSAATQGFGVALGDLTLSEEDFAARRLAMPLDIVQRTGARYYFVYPESVAQQQKIQRFSAWLDANRD” as the sequence, how does the “soluble on expression in E. coli” value read?
The value was “not soluble”.

Which “soluble on expression in E. coli” value does the source give for “MGSDKIHHHHHHMYLLDSTIAKKIVSRTMKIIGHNINVMNGQGVILGSGDPKRIGSTHEGALLAIAQNRNVELSDEVASGLHGVKPGINLPLHYQGQIIGVIGITGAPDELAHYGELLKMTAEMIVEQANQQDKLQWENRQREEFILQLIKANTDDEQLQRWAKQLDIDINLPRVAAIIEISEKLSAPIHKTASLINAAASESSVDERNPRVSETLKQVLHLLQNPDRGNLIAMTSMSQLVILKPAFLDGKQWDPELENQRIDKLLQRLPAQMGLHFKIALGHFFPEKGGIARSYQTAQETLNLGKQLNPEGTKYLFEDYSLQVLLSGLKHDWRGQALASPYQQLTQADKNGQLRKTLAAYITHFGDAQQCANALFIHRNTLRYRLDKIQQLTQTDIQSLHGLLSLYLGQLLDTSANPR” here?
Its value is “not soluble”.

For “NLYFQGHMDNVDELRKIENKSSFVSADNMPEYVKGAFISMQDERFYNHHGFDLKGTTRALFSTISDRDVQGGSTITQQVVKNYFYDNDRSFTRKVKELFVAHRVEKQYNKNEILSFYLNNIYFGDNQYTLEGAANHYFGTTVNKNSTTMSHITVLQSAILASKVNAPSVYNINNMSENFTQRVSTNLEKMKQQNYINETQYQQAMSQLN”, which “soluble on expression in E. coli” value is on record?
Its value is “soluble”.

With “SNLYTERVLSVHHWNDTLFSFKTTRNPGLRFKTGQFVMIGLEVDGRPLMRAYSIASPNYEEHLEFFSIKVPDGPLTSRLQHLKEGDELMVSRKPTGTLVHDDLLPGKHLYLLSTGTGMAPFLSVIQDPETYERYEKVILVHGVRWVSELAYADFITKVLPEHEYFGDQVKEKLIYYPLVTREPFRNQGRQTDLMRSGKLFEDIGLPPMNPQDDRAMICGSPSMLEETSAVLDSFGLKISPRMGEPGDYLIERAFVEK” as the sequence, how does the “soluble on expression in E. coli” value read?
The value was “soluble”.

For “MSIHSASPIIRRKSRKIWVGNVPVGGDAPIAVQSMTNTETCDVAATVAQIRRLEDAGADIVRVSVPDMDAAEAFGKIKQQVNVPLVADIHFDYRIALRVAELGVDCLRINPGNIGREDRVKAVVDAARERNIPIRIGVNAGSLEKDLQKKYGEPTPEALLESAMRHVDHLDKLDFQNFKVSVKASDVFMAVAAYRLLARQIEQPLHLGITEAGGLRSGTVKSAVGLGMLLAEGIGDTIRISLAADPVEEIKVGFDILKSLHLRSRGINFIACPSCSRQNFDVVKTMNELEGRLEDLLVPMDVAVIGCVVNGPGEAKEAHVGLTGGTPNLVYIDGKPSQKLTNDNLVDELERLIRQKAAEKAEADASLIARG”, which “soluble on expression in E. coli” value is on record?
The value was “not soluble”.

With “MLVFISNSRLSESEVQKLRDKHLIDDFIQRENKGYDFAAWHDGMEFVGFENLKQYDSVTVMNDTCFGPLWDMAPIYDNYESNPNVDFWGMTNHQGIKAGDIYIHEHLQSYFISFKKRLVESSVFQKFWKSVESFEDVQKVIDNYETLYTKKFRDAGFNYESILNTIPLNDKFFHSNFTIHYPHVLLDTGVPFIKVKTFDLTQHLAPYLLKEIEKRTDYPVELILSHMSDMSLPTPPYLLDRKVIEKSSQTYSDTKKIAVHLHTYYVDLLEDFLKQFENFHFTYDLFLTTDSEDKKAEIQSILDKNGKVARIFITGNRGRDVIPMLKLKDELSAYDYIGHFHTKKSPEYPYWVGDSWRNELFSMLIQPADNIIANLERDDRLGLVIADIPSFFRYTKIVDPWNENRFAEGMNDLWERMDLGRDIDFDKMNTFIMSYGTFIWFKYDALKPLFDLDLQDEEIPAEPIPQHTILHSIERILVYLAWARRYDYAIAKNDIYITPFVDNVVLNIRPDTLPNTYINFDNIGGIKGALKYIIVGPGTAVKYIFRRIKRKFKSLEHHHHHH” as the sequence, how does the “soluble on expression in E. coli” value read?
Its value is “soluble”.

For “MEVSKANGTENNVEKFDAATQEATYLDEADVDAELEAMKKRLQEMEEEANRLKEVQEQSASEVPSSEEVDRRSVYVGNVDYGSTPEELQAHFKECGTINRVTILCDKFTGHPKGFAYIEFATEEGANNAVILNESLFRGRNLKVSIKRTNVPGISTTDRGRGRGFPRGIGFRGRGGLRGGFRGRGYHGFRGRGRMTPY”, which “soluble on expression in E. coli” value is on record?
The value was “soluble”.

With “TSGTLYLVGTPIGNLDDMTFRAIATLKNVDLIAAEDTRHTGKLLKHFQIATPQISYHDHNRHQRQAQLLEKLRSGLNIALVSDAGLPGISDPGFELVASAIDTEITVVPIPGV” as the sequence, how does the “soluble on expression in E. coli” value read?
The value was “not soluble”.

For “MKRISTLFLLATLGLAAGTAQAAQPDAGLTGCAAKRSAIENQLKIARDHGNSDQVGGLEEALRGVDNCTDASLRKEREQKVLDARHEVAQREKDLKKAEKKGDAEKINKRKDKLAESRKELQEAVDALDR”, which “soluble on expression in E. coli” value is on record?
The value was “not soluble”.

Which “soluble on expression in E. coli” value does the source give for “MTKWKRANPNGTRDYLFEECTLIEEVEQKLRLTFLERGYEEIRTPTIEFYDVFAFQNRPIDEEKMYKFFDEKGRIIVLRPDMTIPLARVIGTQRWDTPLKVTYSGNVFRANESHSGKYNEIVQSGIEVIGIDNVRAEIECVISVIQALQKLKVQSFTIEIGQVQLYKCIVKKLSIQDEEERVLRTYIESKNYAALSNFIGEKKLDRCDETVRLLEKLPRLFGNLEVIEEAEKLASSNEMKMAIARVKEMYETIEMLGYGSYISIDLGMIQHLDYYTGVIFKGYIYEIGEEIVSGGRYDELIGNFGEMLPAVGLAVQVNQIVKALQEQQEPYERNQIDIVIHYELNRLAEAERLRNLLRKDGKNAWLSLFSNLSDTFQFARKNKIGTVVEAQNEYLVEYVWNEKWVVQKEGEASCVTFKLR” here?
The value was “not soluble”.

With “MKGLRLPESMREELAKPHGKLYRGKGEKLLLEVEEISEAKPFCTVGDLVTASAIKVGLTPDLAVADGKTLREENVEFEQEAFDEVIETTNPPAHISCELISALLKALKLCEDGKKVLVFVDGEEDLAVVPLVKLLPLGALILYGQPGEGVVALKVDEEKKVLILNLLNKMEIIGECDELKYLLGGD” as the sequence, how does the “soluble on expression in E. coli” value read?
Its value is “not soluble”.
